# How the values were obtained:
# Test in all cases: anti-FLAG co-IP LC-MS, exp 4, +Dox +IFNG
# [1] = target: 60S ribosomal protein L8 (Homo sapiens) (UniProt P62917)
# [2] = target: Myosin regulatory light chain 12A (Homo sapiens) (UniProt J3QRS3)
# Filamin-A (Homo sapiens) = Filamin-A (Homo sapiens) (UniProt P21333)
# [3] = target: 60 kDa heat shock protein, mitochondrial (Homo sapiens) (UniProt P10809)
# [4] = target: Nucleosome assembly protein 1-like 1 (Homo sapiens) (UniProt P55209)
# [5] = target: Alpha-actinin-4 (Homo sapiens) (UniProt O43707)
# [6] = target: WD repeat-containing protein 1 (Homo sapiens) (UniProt O75083)
# [7] = target: 4F2 cell-surface antigen heavy chain (Homo sapiens) (UniProt P08195)
# [8] = target: 60S ribosomal protein L5 (Homo sapiens) (UniProt P46777)
# [9] = target: 40S ribosomal protein S4, X isoform (Homo sapiens) (UniProt P62701)
# [10] = target: AP-2 complex subunit alpha-1 (Homo sapiens) (UniProt O95782)
# [11] = target: Actin-related protein 3 (Homo sapiens) (UniProt P61158)
# [12] = target: Procollagen-lysine, 2-oxoglutarate 5-dioxygenase 1 (Homo sapiens) (UniProt Q02809)
# [13] = target: Prelamin-A/C (Homo sapiens) (UniProt P02545)
# [14] = target: Phosphate carrier protein, mitochondrial (Homo sapiens) (UniProt Q00325)
# [15] = target: T-complex protein 1 subunit theta (Homo sapiens) (UniProt P50990)
# [16] = target: Reticulon-4 (Homo sapiens) (UniProt Q9NQC3)
# [17] = target: cAMP-dependent protein kinase type I-alpha regulatory subunit (Homo sapiens) (UniProt P10644)
# [18] = target: Tubulin beta-2A chain (Homo sapiens) (UniProt Q13885)
# [19] = target: Endonuclease domain-containing 1 protein (Homo sapiens) (UniProt O94919)
# [20] = target: Dynactin subunit 1 (Homo sapiens) (UniProt Q14203)
# [21] = target: Heat shock 70 kDa protein 1B (Homo sapiens) (UniProt P0DMV9)
# [22] = target: 40S ribosomal protein S8 (Homo sapiens) (UniProt P62241)
# [23] = target: 60S ribosomal protein L11 (Homo sapiens) (UniProt P62913)
# [24] = target: Insulin-like growth factor 2 mRNA-binding protein 2 (Homo sapiens) (UniProt F8W930)
# [25] = target: Protease serine 2 preproprotein (Homo sapiens) (UniProt A6XMV9)
# Drebrin (Homo sapiens) = Drebrin (Homo sapiens) (UniProt Q16643)
# [26] = target: Src substrate cortactin (Homo sapiens) (UniProt Q14247)
# [27] = target: Elongation factor 1-delta (Homo sapiens)
# [28] = target: Guanine nucleotide-binding protein G(i) subunit alpha-2 (Homo sapiens) (UniProt P04899)
# [29] = target: Importin subunit beta-1 (Homo sapiens) (UniProt Q14974)
# [30] = target: 40S ribosomal protein S3a (Homo sapiens) (UniProt P61247)
# [31] = target: Capping protein (Actin filament) muscle Z-line, beta, isoform CRA_d (Homo sapiens) (UniProt B1AK88)
# Desmin (Homo sapiens) = Desmin (Homo sapiens) (UniProt P17661)
# [32] = target: Protein disulfide-isomerase (Homo sapiens) (UniProt P07237)
# [33] = target: Stress-70 protein, mitochondrial (Homo sapiens) (UniProt P38646)
# [34] = target: Alpha-actinin-1 (Homo sapiens) (UniProt P12814)
# Alpha-actinin-1 (Homo sapiens), sequence (P12814 whole entry): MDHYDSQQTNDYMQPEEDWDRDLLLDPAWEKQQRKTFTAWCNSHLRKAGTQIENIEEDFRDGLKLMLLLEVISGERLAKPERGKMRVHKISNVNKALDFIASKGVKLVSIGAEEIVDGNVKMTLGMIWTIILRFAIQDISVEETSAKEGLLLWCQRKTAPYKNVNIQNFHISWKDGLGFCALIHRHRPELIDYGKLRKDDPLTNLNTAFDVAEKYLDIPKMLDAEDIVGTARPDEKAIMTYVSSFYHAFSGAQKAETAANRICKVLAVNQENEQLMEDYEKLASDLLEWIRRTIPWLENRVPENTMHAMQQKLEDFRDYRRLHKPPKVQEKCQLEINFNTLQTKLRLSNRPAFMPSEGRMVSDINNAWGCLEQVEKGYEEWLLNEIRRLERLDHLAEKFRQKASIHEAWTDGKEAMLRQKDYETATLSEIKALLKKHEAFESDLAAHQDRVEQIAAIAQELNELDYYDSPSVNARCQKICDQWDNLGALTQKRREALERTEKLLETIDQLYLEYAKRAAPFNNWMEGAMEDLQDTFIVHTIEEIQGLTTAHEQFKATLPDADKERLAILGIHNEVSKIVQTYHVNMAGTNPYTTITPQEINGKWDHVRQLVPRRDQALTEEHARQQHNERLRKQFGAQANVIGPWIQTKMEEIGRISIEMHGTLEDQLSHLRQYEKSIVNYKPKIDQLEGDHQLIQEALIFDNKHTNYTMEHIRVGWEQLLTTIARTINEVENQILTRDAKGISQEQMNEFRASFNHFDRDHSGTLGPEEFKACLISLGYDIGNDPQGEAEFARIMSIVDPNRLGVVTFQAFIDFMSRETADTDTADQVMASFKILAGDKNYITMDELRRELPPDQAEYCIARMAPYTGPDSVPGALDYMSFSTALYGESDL
# Protein disulfide-isomerase (Homo sapiens), sequence (P07237 18-508 limits assumed): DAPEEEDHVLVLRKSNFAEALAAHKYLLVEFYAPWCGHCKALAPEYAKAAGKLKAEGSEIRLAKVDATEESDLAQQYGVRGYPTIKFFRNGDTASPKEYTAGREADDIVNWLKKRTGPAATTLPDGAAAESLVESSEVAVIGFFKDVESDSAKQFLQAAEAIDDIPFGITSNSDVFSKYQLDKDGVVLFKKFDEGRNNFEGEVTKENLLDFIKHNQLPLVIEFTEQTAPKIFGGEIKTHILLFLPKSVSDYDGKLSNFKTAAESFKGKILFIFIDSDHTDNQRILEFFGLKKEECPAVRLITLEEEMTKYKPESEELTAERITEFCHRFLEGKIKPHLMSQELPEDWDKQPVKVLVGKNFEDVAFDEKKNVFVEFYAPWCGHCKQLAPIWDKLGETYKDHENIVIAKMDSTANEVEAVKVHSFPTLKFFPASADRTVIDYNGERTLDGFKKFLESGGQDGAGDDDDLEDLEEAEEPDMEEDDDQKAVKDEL
# 4F2 cell-surface antigen heavy chain (Homo sapiens), sequence (P08195 103-630 limits assumed): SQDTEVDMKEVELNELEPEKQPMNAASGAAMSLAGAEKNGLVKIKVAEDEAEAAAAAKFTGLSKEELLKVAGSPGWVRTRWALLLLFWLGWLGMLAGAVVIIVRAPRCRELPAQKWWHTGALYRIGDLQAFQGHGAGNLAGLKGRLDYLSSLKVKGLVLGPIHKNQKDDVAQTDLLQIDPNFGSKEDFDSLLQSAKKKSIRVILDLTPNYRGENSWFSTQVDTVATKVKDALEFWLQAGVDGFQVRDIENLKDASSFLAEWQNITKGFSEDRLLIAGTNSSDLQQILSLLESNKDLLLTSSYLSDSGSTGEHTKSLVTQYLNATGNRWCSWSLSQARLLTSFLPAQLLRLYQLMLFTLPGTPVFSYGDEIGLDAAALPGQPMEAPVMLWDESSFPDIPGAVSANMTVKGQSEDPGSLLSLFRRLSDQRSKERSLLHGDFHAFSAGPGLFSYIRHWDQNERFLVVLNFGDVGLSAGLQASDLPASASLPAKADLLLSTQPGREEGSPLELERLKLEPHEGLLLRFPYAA
# Heat shock 70 kDa protein 1B (Homo sapiens), sequence (P0DMV9 2-641 limits assumed): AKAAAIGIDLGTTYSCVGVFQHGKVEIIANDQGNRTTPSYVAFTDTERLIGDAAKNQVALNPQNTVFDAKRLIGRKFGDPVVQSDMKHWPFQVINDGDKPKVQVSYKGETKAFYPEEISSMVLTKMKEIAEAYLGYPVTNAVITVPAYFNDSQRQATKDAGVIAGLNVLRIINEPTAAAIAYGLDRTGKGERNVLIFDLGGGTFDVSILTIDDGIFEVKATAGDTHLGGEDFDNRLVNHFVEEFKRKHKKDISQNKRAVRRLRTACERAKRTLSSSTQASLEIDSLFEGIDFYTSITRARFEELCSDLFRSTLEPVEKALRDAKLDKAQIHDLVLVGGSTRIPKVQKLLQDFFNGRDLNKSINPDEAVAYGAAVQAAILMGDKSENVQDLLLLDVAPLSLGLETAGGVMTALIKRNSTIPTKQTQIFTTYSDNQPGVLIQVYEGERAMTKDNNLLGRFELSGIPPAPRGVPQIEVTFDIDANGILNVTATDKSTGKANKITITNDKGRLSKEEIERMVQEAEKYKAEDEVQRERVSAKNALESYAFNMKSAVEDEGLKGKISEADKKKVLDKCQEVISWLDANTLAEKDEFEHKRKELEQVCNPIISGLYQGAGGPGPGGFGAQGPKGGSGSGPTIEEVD
# 60 kDa heat shock protein, mitochondrial (Homo sapiens), sequence (P10809 27-573 limits assumed): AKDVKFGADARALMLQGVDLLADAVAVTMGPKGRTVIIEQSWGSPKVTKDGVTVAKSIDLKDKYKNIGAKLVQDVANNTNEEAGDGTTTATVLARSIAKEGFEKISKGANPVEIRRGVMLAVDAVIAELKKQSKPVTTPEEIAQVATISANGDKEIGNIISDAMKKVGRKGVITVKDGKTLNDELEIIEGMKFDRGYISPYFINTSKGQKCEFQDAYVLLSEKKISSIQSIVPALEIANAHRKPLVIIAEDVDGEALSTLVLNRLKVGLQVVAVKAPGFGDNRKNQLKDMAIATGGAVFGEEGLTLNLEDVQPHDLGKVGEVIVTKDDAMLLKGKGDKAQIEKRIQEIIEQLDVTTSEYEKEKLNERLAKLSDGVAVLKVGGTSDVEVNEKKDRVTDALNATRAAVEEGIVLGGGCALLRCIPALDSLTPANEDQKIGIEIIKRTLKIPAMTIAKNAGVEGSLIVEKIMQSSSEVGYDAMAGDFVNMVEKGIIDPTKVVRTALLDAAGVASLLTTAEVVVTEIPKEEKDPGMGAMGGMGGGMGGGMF
# Protease serine 2 preproprotein (Homo sapiens), sequence (A6XMV9 entry or part of it limits assumed, form in doubt): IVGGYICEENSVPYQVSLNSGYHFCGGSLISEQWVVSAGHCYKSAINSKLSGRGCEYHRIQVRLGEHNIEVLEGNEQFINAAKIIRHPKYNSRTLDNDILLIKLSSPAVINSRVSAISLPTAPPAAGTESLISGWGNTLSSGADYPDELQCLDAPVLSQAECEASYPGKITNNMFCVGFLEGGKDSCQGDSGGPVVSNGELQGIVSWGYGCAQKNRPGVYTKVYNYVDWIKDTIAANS
# Stress-70 protein, mitochondrial (Homo sapiens), sequence (P38646 47-679 limits assumed): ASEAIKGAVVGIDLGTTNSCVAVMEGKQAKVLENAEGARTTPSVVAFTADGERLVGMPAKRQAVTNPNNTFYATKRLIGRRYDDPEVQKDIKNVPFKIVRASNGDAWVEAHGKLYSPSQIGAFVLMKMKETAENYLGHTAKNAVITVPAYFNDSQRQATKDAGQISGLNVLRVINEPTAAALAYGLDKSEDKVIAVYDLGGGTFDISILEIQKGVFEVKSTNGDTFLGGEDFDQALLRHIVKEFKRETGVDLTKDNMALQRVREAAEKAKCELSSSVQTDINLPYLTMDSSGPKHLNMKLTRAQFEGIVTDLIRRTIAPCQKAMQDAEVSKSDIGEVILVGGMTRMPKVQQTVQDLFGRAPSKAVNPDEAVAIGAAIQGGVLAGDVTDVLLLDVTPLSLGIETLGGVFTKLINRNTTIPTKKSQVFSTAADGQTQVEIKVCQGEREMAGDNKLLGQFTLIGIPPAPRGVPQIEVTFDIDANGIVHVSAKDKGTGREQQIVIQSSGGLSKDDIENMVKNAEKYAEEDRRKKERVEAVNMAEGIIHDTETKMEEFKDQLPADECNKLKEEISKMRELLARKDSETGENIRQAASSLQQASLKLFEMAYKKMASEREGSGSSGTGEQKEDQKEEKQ
# Prelamin-A/C (Homo sapiens), sequence (P02545 1-646 limits assumed): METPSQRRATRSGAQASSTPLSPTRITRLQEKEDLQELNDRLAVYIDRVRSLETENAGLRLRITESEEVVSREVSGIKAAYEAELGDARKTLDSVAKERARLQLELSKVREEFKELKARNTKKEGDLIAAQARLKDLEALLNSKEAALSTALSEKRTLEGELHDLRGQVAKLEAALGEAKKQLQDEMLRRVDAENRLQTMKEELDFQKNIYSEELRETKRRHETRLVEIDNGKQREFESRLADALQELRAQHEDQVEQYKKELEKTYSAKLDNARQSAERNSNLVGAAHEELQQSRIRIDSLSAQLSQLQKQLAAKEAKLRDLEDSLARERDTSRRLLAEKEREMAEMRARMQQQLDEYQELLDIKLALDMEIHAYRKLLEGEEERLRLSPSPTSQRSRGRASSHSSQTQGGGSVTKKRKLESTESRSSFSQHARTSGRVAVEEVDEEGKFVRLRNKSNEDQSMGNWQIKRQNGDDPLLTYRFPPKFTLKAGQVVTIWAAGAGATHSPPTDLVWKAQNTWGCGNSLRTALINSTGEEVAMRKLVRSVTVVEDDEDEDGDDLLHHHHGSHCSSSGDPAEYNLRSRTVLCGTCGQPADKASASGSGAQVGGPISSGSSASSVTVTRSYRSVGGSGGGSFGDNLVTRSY
# cAMP-dependent protein kinase type I-alpha regulatory subunit (Homo sapiens), sequence (P10644 whole entry): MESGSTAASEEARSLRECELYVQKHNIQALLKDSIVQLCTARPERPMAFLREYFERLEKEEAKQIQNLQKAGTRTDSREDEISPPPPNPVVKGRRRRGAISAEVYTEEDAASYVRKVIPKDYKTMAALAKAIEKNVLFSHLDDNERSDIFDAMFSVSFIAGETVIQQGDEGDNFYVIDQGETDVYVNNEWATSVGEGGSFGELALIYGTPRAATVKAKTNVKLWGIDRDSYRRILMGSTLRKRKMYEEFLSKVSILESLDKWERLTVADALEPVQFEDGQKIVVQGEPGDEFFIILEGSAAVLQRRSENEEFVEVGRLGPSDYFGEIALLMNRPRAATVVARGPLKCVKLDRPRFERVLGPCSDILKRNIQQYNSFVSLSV
substance,measurement,setting,value
i3XFLAG-NLS-CTDaa154-424,PSMs,[1],2 PSMs
same,PSMs,[2],62 PSMs
same,PSMs,Filamin-A (Homo sapiens),10 PSMs
same,PSMs,[3],5 PSMs
same,PSMs,[4],3 PSMs
same,PSMs,[5],46 PSMs
same,PSMs,[6],11 PSMs
same,PSMs,[7],2 PSMs
same,PSMs,[8],19 PSMs
same,PSMs,[9],3 PSMs
same,PSMs,[10],2 PSMs
same,PSMs,[11],3 PSMs
same,PSMs,[12],6 PSMs
same,PSMs,[13],6 PSMs
same,PSMs,[14],2 PSMs
same,PSMs,[15],3 PSMs
same,PSMs,[16],6 PSMs
same,PSMs,[17],3 PSMs
same,PSMs,[18],99 PSMs
same,PSMs,[19],2 PSMs
same,PSMs,[20],2 PSMs
same,PSMs,[21],29 PSMs
same,PSMs,[22],2 PSMs
same,PSMs,[23],3 PSMs
same,PSMs,[24],2 PSMs
same,PSMs,[25],2 PSMs
same,PSMs,Drebrin (Homo sapiens),33 PSMs
same,PSMs,[26],5 PSMs
same,PSMs,[27],11 PSMs
same,PSMs,[28],11 PSMs
same,PSMs,[29],3 PSMs
same,PSMs,[30],2 PSMs
same,PSMs,[31],11 PSMs
same,PSMs,Desmin (Homo sapiens),12 PSMs
same,PSMs,[32],14 PSMs
same,PSMs,[33],7 PSMs
same,PSMs,[34],34 PSMs
